{"source": "patent US20250043002A1", "about": "(Regeneron, published 2025)", "binders": {"B1": {"name": "mAb9373 (antibody, V domains shown)", "VH": "QVQLVQSGTEVKKPGASVKVSCKASGYTFTAYYMHWVRQAPGQGLDWMGWISPNSGFTNYAQKFQGRVTMTRDTSINTFYMELSGLRSDDTAVYYCAREGSTHHNSFDPWGQGTLVTVSS", "VL": "not shown", "notes": "Bivalent parental antibody; also called parental bivalent anti-PD-L1 antibody; PD-L1 bivalent control antibody"}, "B2": {"name": "REGN6193 (bispecific antibody, human IgG4 S228P, kappa)", "heavy 1": "EVQLVESGGGLVQPGRSLRLSCAASGFTFDDYALHWVRQAPGKGLEWVSGISWTGGTIDYADSVKGRFTISRDNAKNSLYLQMSSLRTEDTAIYYCTRDIRGNWKYGGWFDPWGQGTLVTVSSASTKGPSVFPLAPCSRSTSESTAALGCLVKDYFPEPVTVSWNSGALTSGVHTFPAVLQSSGLYSLSSVVTVPSSSLGTKTYTCNVDHKPSNTKVDKRVESKYGPPCPPCPAPPVAGPSVFLFPPKPKDTLMISRTPEVTCVVVDVSQEDPEVQFNWYVDGVEVHNAKTKPREEQFNSTYRVVSVLTVLHQDWLNGKEYKCKVSNKGLPSSIEKTISKAKGQPREPQVYTLPPSQEEMTKNQVSLTCLVKGFYPSDIAVEWESNGQPENNYKTTPPVLDSDGSFFLYSRLTVDKSRWQEGNVFSCSVMHEALHNHYTQKSLSLSLGK", "heavy 2": "EVQLVESGGGLVQPGGSLRLSCAASGFTFSRNNMHWVRQAPGKGLEYVSGISSNGGRTYYADSVKGRFTISRDNSKNTLYLQMGGLRAADMAVYFCTRDDELLSFDYWGQGTLVTVSSASTKGPSVFPLAPCSRSTSESTAALGCLVKDYFPEPVTVSWNSGALTSGVHTFPAVLQSSGLYSLSSVVTVPSSSLGTKTYTCNVDHKPSNTKVDKRVESKYGPPCPPCPAPPVAGPSVFLFPPKPKDTLMISRTPEVTCVVVDVSQEDPEVQFNWYVDGVEVHNAKTKPREEQFNSTYRVVSVLTVLHQDWLNGKEYKCKVSNKGLPSSIEKTISKAKGQPREPQVYTLPPSQEEMTKNQVSLTCLVKGFYPSDIAVEWESNGQPENNYKTTPPVLDSDGSFFLYSRLTVDKSRWQEGNVFSCSVMHEALHNRFTQKSLSLSPGK", "light": "not shown", "notes": "common light chain 1-39; also called PD-L1×CD28; anti-PD-L1 × anti-CD28 bispecific antibody"}, "B3": {"name": "mAb9364 (antibody, V domains shown)", "VH": "EVQLVESGGGLVQPGRSLRLSCAASGFTFDDYALHWVRQAPGKGLEWVSGISWTGGTIDYADSVKGRFTISRDNAKNSLYLQMSSLRTEDTAIYYCTRDIRGNWKYGGWFDPWGQGTLVTVSS", "VL": "not shown", "notes": "as for B1"}}, "key": {"[1]": {"target": "T1, human CD28 on cells (endogenous on Jurkat/NFkB-Luc cells; human primary CD4+ T cells) (human, UniProt P10747 19-220)", "test": "cell-based or functional assay"}, "[2]": {"target": "T1, human CD28 on cells (endogenous on …)", "test": "cell-based or functional assay", "remark": "listed apart in the source"}, "[3]": {"target": "T1, human CD28 on cells (endogenous on …)", "test": "flow cytometry, Jurkat/NFkB-Luc cells (endogenous CD28); EC50 NC"}, "[4]": {"target": "human CD28 expressed with a C-terminal murine Fc tag (hCD28.mFc) (human)", "test": "SPR Biacore 25 C, hCD28.mFc captured by anti-mFc, antibody injected"}, "[5]": {"target": "T2, human PD-L1 expressed on cells (HEK293/hCD20/hPSMA/hPD-L1; WSU-DLCL2/hPD-L1) (human, UniProt Q9NZQ7 19-290)", "T2 sequence (Q9NZQ7 19-290)": "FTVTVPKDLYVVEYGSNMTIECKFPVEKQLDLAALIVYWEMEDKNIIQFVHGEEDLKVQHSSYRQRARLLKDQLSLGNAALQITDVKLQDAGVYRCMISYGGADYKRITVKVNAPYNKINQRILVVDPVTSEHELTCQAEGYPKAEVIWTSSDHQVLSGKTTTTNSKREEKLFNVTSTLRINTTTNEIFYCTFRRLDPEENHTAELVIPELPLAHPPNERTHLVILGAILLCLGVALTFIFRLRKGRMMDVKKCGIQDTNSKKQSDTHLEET", "test": "cell-based or functional assay"}, "[6]": {"target": "T2, human PD-L1 expressed on cells …", "test": "flow cytometry, HEK293/hCD20/hPSMA/hPD-L1 cells"}, "[7]": {"target": "T1, human CD28 on cells (endogenous on …)", "test": "flow cytometry, Jurkat/NFkB-Luc cells (endogenous CD28)"}, "[8]": {"target": "T3, hPD-L1-mFc: hPD-L1 extracellular domain (amino acids F19-T239) expressed with the Fc portion of mouse IgG2a … (human; mouse, UniProt Q9NZQ7 19-239)", "T3 construct": "range 19-239; not shown: Fc portion of mouse IgG2a, amino acids E98-K330", "T3 sequence (Q9NZQ7 19-239 limits assumed)": "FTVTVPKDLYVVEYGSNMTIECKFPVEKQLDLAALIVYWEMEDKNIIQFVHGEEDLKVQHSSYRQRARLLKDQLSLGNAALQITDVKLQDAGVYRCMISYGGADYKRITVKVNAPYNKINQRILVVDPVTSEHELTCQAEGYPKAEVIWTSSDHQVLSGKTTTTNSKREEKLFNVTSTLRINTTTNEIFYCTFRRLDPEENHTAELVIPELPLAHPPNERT", "test": "blocking ELISA, 0.7 nM hPD-L1-mFc on plate-coated hPD1-hFc"}, "[9]": {"target": "human PD-L1 expressed with a C-terminal myc-myc-hexahistidine tag (hPD-L1.mmH) (human)", "sequence (chain, as listed by the source limits assumed)": "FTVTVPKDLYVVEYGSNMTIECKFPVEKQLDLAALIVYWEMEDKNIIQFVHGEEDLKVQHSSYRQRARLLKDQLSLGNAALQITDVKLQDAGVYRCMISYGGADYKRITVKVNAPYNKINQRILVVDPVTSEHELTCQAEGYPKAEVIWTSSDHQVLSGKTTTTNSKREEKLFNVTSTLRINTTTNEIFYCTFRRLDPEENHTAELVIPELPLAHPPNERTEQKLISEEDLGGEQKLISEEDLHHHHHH", "test": "SPR Biacore 25 C, antibody captured by anti-hFc, hPD-L1.mmH injected"}}, "data": [{"binder": "B1", "values": [{"measurement": "NFkB-luciferase MAX (RLU), Jurkat/NFkB-Luc + HEK293/hCD20/hPSMA", "setting": "[1]", "result": 11000, "unit": "RLU"}, {"measurement": "NFkB-luciferase MAX (RLU), Jurkat/NFkB-Luc + HEK293/hCD20/hPSMA + CD20×CD3", "setting": "[1]", "result": 181000, "unit": "RLU"}, {"measurement": "NFkB-luciferase MAX (RLU), Jurkat/NFkB-Luc + HEK293/hCD20/hPSMA/hPD-L1", "setting": "[1]", "result": 11100, "unit": "RLU"}, {"measurement": "NFkB-luciferase MAX (RLU), Jurkat/NFkB-Luc + HEK293/hCD20/hPSMA/hPD-L1 + CD20×CD3", "setting": "[1]", "result": 155000, "unit": "RLU"}, {"measurement": "IL2 release MAX (RLU), CD4+ T cells + HEK293/hCD20/hPSMA", "setting": "[2]", "result": 4530, "unit": "RLU"}, {"measurement": "IL2 release MAX (RLU), CD4+ T cells + HEK293/hCD20/hPSMA + CD20×CD3", "setting": "[2]", "result": 9080, "unit": "RLU"}, {"measurement": "IL2 release MAX (RLU), CD4+ T cells + HEK293/hCD20/hPSMA/hPD-L1", "setting": "[2]", "result": 3640, "unit": "RLU"}, {"measurement": "IL2 release MAX (RLU), CD4+ T cells + HEK293/hCD20/hPSMA/hPD-L1 + CD20×CD3", "setting": "[2]", "result": 6960, "unit": "RLU"}, {"measurement": "Fold Change (max MFI over secondary antibody alone)", "setting": "[3]", "result": 5.2, "unit": "fold"}, {"measurement": "90 nM mAb Bind (RU)", "setting": "[4]", "result": -1.3, "unit": "RU"}]}, {"binder": "B2", "values": [{"measurement": "NFkB-luciferase EC50, Jurkat/NFkB-Luc + HEK293/hCD20/hPSMA/hPD-L1 + CD20×CD3", "setting": "[1]", "result": 0.413, "unit": "nM"}, {"measurement": "NFkB-luciferase MAX (RLU), Jurkat/NFkB-Luc + HEK293/hCD20/hPSMA", "setting": "[1]", "result": 14200, "unit": "RLU"}, {"measurement": "NFkB-luciferase MAX (RLU), Jurkat/NFkB-Luc + HEK293/hCD20/hPSMA + CD20×CD3", "setting": "[1]", "result": 217000, "unit": "RLU"}, {"measurement": "NFkB-luciferase MAX (RLU), Jurkat/NFkB-Luc + HEK293/hCD20/hPSMA/hPD-L1", "setting": "[1]", "result": 19500, "unit": "RLU"}, {"measurement": "NFkB-luciferase MAX (RLU), Jurkat/NFkB-Luc + HEK293/hCD20/hPSMA/hPD-L1 + CD20×CD3", "setting": "[1]", "result": "2.73e+06", "unit": "RLU"}, {"measurement": "IL2 release EC50, CD4+ T cells + HEK293/hCD20/hPSMA/hPD-L1 + CD20×CD3", "setting": "[2]", "result": 0.144, "unit": "nM"}, {"measurement": "IL2 release MAX (RLU), CD4+ T cells + HEK293/hCD20/hPSMA", "setting": "[2]", "result": 4250, "unit": "RLU"}, {"measurement": "IL2 release MAX (RLU), CD4+ T cells + HEK293/hCD20/hPSMA + CD20×CD3", "setting": "[2]", "result": 12600, "unit": "RLU"}, {"measurement": "IL2 release MAX (RLU), CD4+ T cells + HEK293/hCD20/hPSMA/hPD-L1", "setting": "[2]", "result": 2760, "unit": "RLU"}, {"measurement": "IL2 release MAX (RLU), CD4+ T cells + HEK293/hCD20/hPSMA/hPD-L1 + CD20×CD3", "setting": "[2]", "result": 141000, "unit": "RLU"}, {"measurement": "AP-1 luciferase EC50, WSU-DLCL2/hPD-L1 + Jurkat/AP1-Luc/hPD1", "setting": "[5]", "result": 0.202, "unit": "nM"}, {"measurement": "AP-1 luciferase MAX (RLU), WSU-DLCL2/hPD-L1 + Jurkat/AP1-Luc/hPD1", "setting": "[5]", "result": "1.49e+06", "unit": "RLU"}, {"measurement": "EC50", "setting": "[6]", "result": 1.3, "unit": "nM"}, {"measurement": "Fold Change (max MFI over secondary antibody alone)", "setting": "[6]", "result": 847, "unit": "fold"}, {"measurement": "Max gMFI", "setting": "[6]", "result": "1.3e+06", "unit": "gMFI"}, {"measurement": "Fold Change (max MFI over secondary antibody alone)", "setting": "[7]", "result": 21.8, "unit": "fold"}, {"measurement": "Max gMFI", "setting": "[7]", "result": 9200, "unit": "gMFI"}, {"measurement": "% Blocking at 100 nM mAb", "setting": "[8]", "result": 98, "unit": "%"}, {"measurement": "IC50", "setting": "[8]", "result": 0.82, "unit": "nM"}, {"measurement": "90 nM mAb Bind (RU)", "setting": "[4]", "result": 21.6, "unit": "RU"}, {"measurement": "Kd", "setting": "[4]", "result": 46.9, "unit": "nM"}, {"measurement": "koff", "setting": "[4]", "result": 0.00168, "unit": "s⁻¹"}, {"measurement": "kon", "setting": "[4]", "result": 35900, "unit": "M⁻¹ s⁻¹"}, {"measurement": "t1/2", "setting": "[4]", "result": 6.9, "unit": "min"}, {"measurement": "30 nM hPD-L1.mmH Bind (RU)", "setting": "[9]", "result": 44.2, "unit": "RU"}, {"measurement": "Kd", "setting": "[9]", "result": 0.116, "unit": "nM"}, {"measurement": "koff", "setting": "[9]", "result": "6.37e-05", "unit": "s⁻¹"}, {"measurement": "kon", "setting": "[9]", "result": 548000, "unit": "M⁻¹ s⁻¹"}, {"measurement": "t1/2", "setting": "[9]", "result": 3.02, "unit": "h"}]}, {"binder": "B3", "values": [{"measurement": "NFkB-luciferase MAX (RLU), Jurkat/NFkB-Luc + HEK293/hCD20/hPSMA", "setting": "[1]", "result": 44400, "unit": "RLU"}, {"measurement": "NFkB-luciferase MAX (RLU), Jurkat/NFkB-Luc + HEK293/hCD20/hPSMA + CD20×CD3", "setting": "[1]", "result": 180000, "unit": "RLU"}, {"measurement": "NFkB-luciferase MAX (RLU), Jurkat/NFkB-Luc + HEK293/hCD20/hPSMA/hPD-L1", "setting": "[1]", "result": 57100, "unit": "RLU"}, {"measurement": "NFkB-luciferase MAX (RLU), Jurkat/NFkB-Luc + HEK293/hCD20/hPSMA/hPD-L1 + CD20×CD3", "setting": "[1]", "result": 165000, "unit": "RLU"}, {"measurement": "IL2 release MAX (RLU), CD4+ T cells + HEK293/hCD20/hPSMA", "setting": "[2]", "result": 4360, "unit": "RLU"}, {"measurement": "IL2 release MAX (RLU), CD4+ T cells + HEK293/hCD20/hPSMA + CD20×CD3", "setting": "[2]", "result": 8980, "unit": "RLU"}, {"measurement": "IL2 release MAX (RLU), CD4+ T cells + HEK293/hCD20/hPSMA/hPD-L1", "setting": "[2]", "result": 3680, "unit": "RLU"}, {"measurement": "IL2 release MAX (RLU), CD4+ T cells + HEK293/hCD20/hPSMA/hPD-L1 + CD20×CD3", "setting": "[2]", "result": 10900, "unit": "RLU"}, {"measurement": "AP-1 luciferase EC50, WSU-DLCL2/hPD-L1 + Jurkat/AP1-Luc/hPD1", "setting": "[5]", "result": 0.00651, "unit": "nM"}, {"measurement": "AP-1 luciferase MAX (RLU), WSU-DLCL2/hPD-L1 + Jurkat/AP1-Luc/hPD1", "setting": "[5]", "result": "1.04e+06", "unit": "RLU"}, {"measurement": "EC50", "setting": "[6]", "result": 0.73, "unit": "nM"}, {"measurement": "Fold Change (max MFI over secondary antibody alone)", "setting": "[6]", "result": 401, "unit": "fold"}, {"measurement": "Max gMFI", "setting": "[6]", "result": 620000, "unit": "gMFI"}, {"measurement": "% Blocking at 100 nM mAb", "setting": "[8]", "result": 99, "unit": "%"}, {"measurement": "IC50", "setting": "[8]", "result": 0.52, "unit": "nM"}, {"measurement": "Fold Change (max MFI over secondary antibody alone)", "setting": "[3]", "result": 4.7, "unit": "fold"}, {"measurement": "90 nM mAb Bind (RU)", "setting": "[4]", "result": -0.9, "unit": "RU"}, {"measurement": "30 nM hPD-L1.mmH Bind (RU)", "setting": "[9]", "result": 112, "unit": "RU"}, {"measurement": "Kd", "setting": "[9]", "result": 0.13, "unit": "nM"}, {"measurement": "koff", "setting": "[9]", "result": "7.42e-05", "unit": "s⁻¹"}, {"measurement": "kon", "setting": "[9]", "result": 571000, "unit": "M⁻¹ s⁻¹"}, {"measurement": "t1/2", "setting": "[9]", "result": 2.59, "unit": "h"}]}]}
